Experiment [1] has as its target human CD94 (Natural killer cells antigen CD94) (human) (UniProt Q13241). Briefly: flow cytometry, healthy donor PBL, CD3+CD8+ T cells. In general terms: Flow cytometry measures light scatter and fluorescence of single cells or particles in a stream.
For experiment [2] the target is unchanged. Briefly: flow cytometry, normal liver, CD45+CD3+CD4+ T cells.
Experiment [3] has the same target. Briefly: flow cytometry, normal liver, CD45+CD3+CD8+ T cells.
Experiment [4] shares this target. Briefly: flow cytometry, CLPD-NK patient PBMC, CD3+CD16+ T-LGL.
Experiment [5] has the same target. Nature of the experiment: flow cytometry, CD94dim T-LGLL patient PBMC, CD3+CD16- T lymphocytes [Cont.].
Experiment [6] shares this target. Nature of the experiment: flow cytometry, CD94bright T-LGLL patient PBMC, CD3+CD16- T lymphocytes [Cont.].
For experiment [7] the target is unchanged. Nature of the experiment: flow cytometry with APC MESF bead calibration, healthy donor PBL, CD3+CD8+ T cells.
Experiment [8] has the same target. Briefly: flow cytometry with APC MESF bead calibration, normal liver, CD45+CD3+CD4+ T cells.
Experiment [9] shares this target. Briefly: flow cytometry with APC MESF bead calibration, normal liver, CD45+CD3+CD8+ T cells.
The target is the same in experiment [10]. Briefly: flow cytometry with APC MESF bead calibration, CLPD-NK patient PBMC, CD3+CD16+ T-LGL.
The target is the same in experiment [11]. Nature of the experiment: flow cytometry with APC MESF bead calibration, CLPD-NK patient PBMC, CD3+CD8+ T cells.
Experiment [12] shares this target. Briefly: flow cytometry with APC MESF bead calibration, healthy donor PBL, CD3-/CD16+ NK cells.
Experiment [13] has the same target. Nature of the experiment: flow cytometry with APC MESF bead calibration, healthy donor PBL, CD3-/CD56+ NK cells.
For experiment [14] the target is unchanged. Briefly: flow cytometry with APC MESF bead calibration, healthy donor PBL, CD3-/CD57+ NK cells.
For experiment [15] the target is unchanged. Nature of the experiment: flow cytometry with APC MESF bead calibration, average over healthy donor PBMC, CD3-CD16+ NK cells.
Experiment [16] has the same target. Nature of the experiment: flow cytometry with APC MESF bead calibration, average over healthy donor PBMC, CD3-CD56+ NK cells.
Experiment [17] has the same target. Briefly: flow cytometry with APC MESF bead calibration, average over healthy donor PBMC, CD3-CD57+ NK cells.
The target is the same in experiment [18]. Briefly: flow cytometry with APC MESF bead calibration, normal liver, NK cells (panel headed CD45+CD3+CD56+).
For experiment [19] the target is unchanged. Nature of the experiment: flow cytometry with APC MESF bead calibration, CD94dim T-LGLL patient PBMC, CD3-CD16+ NK cells [Cont.].
The target is the same in experiment [20]. Briefly: flow cytometry with APC MESF bead calibration, average over healthy donor PBMC, CD3+CD8+ (CD94+) T cells.
The target is the same in experiment [21]. Nature of the experiment: flow cytometry with APC MESF bead calibration, CD94bright T-LGLL patient PBMC, CD3-CD16+ NK cells [Cont.].
The target is the same in experiment [22]. Nature of the experiment: flow cytometry with APC MESF bead calibration, CD94dim T-LGLL patient PBMC, CD3+CD16- T lymphocytes [Cont.].
Experiment [23] shares this target. Nature of the experiment: flow cytometry with APC MESF bead calibration, CD94bright T-LGLL patient PBMC, CD3+CD16- T lymphocytes [Cont.].
Experiment [24] has the same target. Nature of the experiment: flow cytometry with APC MESF bead calibration, CD94bright T-LGLL patient PBMC, CD3+CD16+ leukemic cells [Cont.].
Experiment [25] has as its target human NKG2A (NKG2-A/NKG2-B type II integral membrane protein) (human) (UniProt P26715). Nature of the experiment: cell-based or functional assay.
UniProt P26715, sequence (P26715 whole entry): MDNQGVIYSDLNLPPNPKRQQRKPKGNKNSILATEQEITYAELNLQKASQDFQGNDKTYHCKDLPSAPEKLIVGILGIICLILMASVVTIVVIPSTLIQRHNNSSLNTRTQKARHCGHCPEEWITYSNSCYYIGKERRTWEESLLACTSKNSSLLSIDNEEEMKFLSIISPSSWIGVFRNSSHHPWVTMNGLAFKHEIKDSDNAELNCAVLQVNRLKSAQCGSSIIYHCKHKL

UniProt Q13241, sequence (Q13241 whole entry): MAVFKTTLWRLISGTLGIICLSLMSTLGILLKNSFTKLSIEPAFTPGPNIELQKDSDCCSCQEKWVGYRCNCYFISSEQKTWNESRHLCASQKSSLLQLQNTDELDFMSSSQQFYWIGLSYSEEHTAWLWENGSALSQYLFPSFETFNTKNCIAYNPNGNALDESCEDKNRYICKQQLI

For “anti-CD94 antibody clone HP-3D9, APC-conjugated (BD Bioscience 559876)”, the % positive cells in experiment [1] is 30%; in experiment [2] it was 13%; in [3], 25%; in experiment [4], 16%; in experiment [5], 14%; in experiment [6], 31%. The CD94 receptor number (receptors per cell) in experiment [7] came to 28000; in experiment [8], 55000; in [9] it was 97000; in experiment [10], 51000; in experiment [11] it was 28000; in experiment [12], 45000. Further, the CD94 receptor number (receptors per cell) was determined as 51000 in experiment [13]; 39000 in [14]; 195000 in experiment [18]; 14000 in [19]; 51000 in [21]; 33000 in experiment [22]. The CD94 receptor number (receptors per cell) in experiment [23] was determined as 172000; in experiment [24], 177000. Moreover, the Antibody binding capacity (receptors per cell) in [15] was 77000; in [16], 117000; in [17], 73000; in experiment [20], 45000.

As for anti-NKG2A Z199 fucosylated antibody, the ADCC assay, depletion of CD3-CD56bright NK cells in fresh healthy donor PBMCs, EC50 in [25] is 40 ng/mL.

In experiment [25], “anti-NKG2A Z199 non-fucosylated antibody” had an ADCC assay, depletion of CD3-CD16+ NK leukemic cells in frozen CLPD-NK patient PBMCs, EC50 of 3 ng/mL; an ADCC assay, depletion of CD3-CD56bright NK cells in fresh healthy donor PBMCs, EC50 of 3 ng/mL; an ADCC assay, potency against the fucosylated Z199 antibody of 13 times.

The values are drawn from patent US20220185895A1.
